# Measured values: IntAct's records for PubMed 21102444
# B1: Protein DOM34 (Saccharomyces cerevisiae), P33309 (parent)
# chain: MKVISLKKDSFNKGGAVITLLPEDKEDLFTVYQIVDKDDELIFKKKFTSKLDEAGKKKSTDLVKLKIKVISEDFDMKDEYLKYKGVTVTDESGASNVDIPVGKYLSFTLDYVYPFTIIKQNFNKFMQKLLNEACNIEYKSDTAAVVLQEGIAHVCLVTSSSTILKQKIEYSMPKKKRTTDVLKFDEKTEKFYKAIYSAMKKDLNFDKLKTIILCSPGFYAKILMDKIFQYAEEEHNKKILDNKGMFFIAHCSTGYLQGINEVLKNPLYASKLQDTKYSKEIMVMDEFLLHLNKDDDKAWYGEKEVVKAAEYGAISYLLLTDKVLHSDNIAQREEYLKLMDSVESNGGKALVLSTLHSLGEELDQLTGIACILKYPLPDLDEDDGEE
# partner: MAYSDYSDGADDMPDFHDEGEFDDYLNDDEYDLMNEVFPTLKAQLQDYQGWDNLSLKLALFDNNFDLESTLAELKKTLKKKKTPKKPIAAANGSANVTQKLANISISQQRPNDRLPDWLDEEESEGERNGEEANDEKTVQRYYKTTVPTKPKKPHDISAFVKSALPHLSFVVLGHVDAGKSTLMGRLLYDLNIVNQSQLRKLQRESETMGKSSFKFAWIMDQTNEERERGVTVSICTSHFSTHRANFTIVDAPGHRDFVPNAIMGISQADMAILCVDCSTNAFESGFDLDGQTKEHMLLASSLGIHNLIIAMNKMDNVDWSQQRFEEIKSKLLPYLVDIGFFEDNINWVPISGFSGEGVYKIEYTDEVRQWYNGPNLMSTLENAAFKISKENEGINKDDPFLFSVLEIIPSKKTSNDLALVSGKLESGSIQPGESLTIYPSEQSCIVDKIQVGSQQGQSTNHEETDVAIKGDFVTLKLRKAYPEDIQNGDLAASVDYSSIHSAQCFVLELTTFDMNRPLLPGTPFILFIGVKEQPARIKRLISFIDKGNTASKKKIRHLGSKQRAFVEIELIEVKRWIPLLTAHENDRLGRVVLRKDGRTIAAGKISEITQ
# B2: Elongation factor 1 alpha-like protein (Saccharomyces cerevisiae), P32769 (parent)
# chain: B1 partner
# partner: B1 chain
# Variants of: B1
# Conditions: with hbs1_yeast HBS1, P32769
row,effect of a mutation on the interaction,Variant
1,disrupting interaction,Y300A;E361A
2,disrupting interaction,E361R
3,disrupting interaction,E361A;Q364A
4,disrupting interaction,S215A;P216A;F218A
5,disrupting interaction,K174A;K175A;K176A;R177A

# Variants of: B2
# Conditions: with dom34_yeast DOM34, P33309
row,effect of a mutation on the interaction,Variant
1,disrupting interaction,L520R
2,disrupting interaction,R256A;D257A;F258A
3,disrupting interaction,R557A;H558A
4,disrupting interaction,R517E
